Source: PMC4156530 (Journal of neurochemistry, 2014)
Where a chain is given by its changes, count along the chain named. In names and notes the source's numbering stands.

B1: human DJ-1 C106S, recombinant, tag-cleaved (natural protein)
chain: GSHMASKRALVILAKGAEEMETVIPVDVMRRAGIKVTVAGLAGKDPVQCSRDVVICPDASLEDAKKEGPYDVVVLPGGNLGAQNLSESAAVKEILKEQENRKGLIAAISAGPTALLAHEIGFGSKVTTHPLAKDKMMNGGHYTYSENRVEKDGLILTSRGPGTSFEFALAIVEALNGKEVAAQVKAPLVLKD
B2: human DJ-1 E18D, recombinant, tag-cleaved (natural protein)
chain: B1 chain with E21D, S109C
modifications: uniformly 15N-labelled in the NMR experiment; fully reduced
B3: human DJ-1 E18Q, recombinant, tag-cleaved (natural protein)
chain: B1 chain with E21Q, S109C
modifications: unlabelled preparation fully reduced; the 15N-labelled preparation of the NMR experiment 43% oxidised (Cys106-SO2-)

Columns and labels:
cross-linking = molecular target: the molecule itself; test: cross-linking
AUC = molecular target: the molecule itself; test: AUC

Protein	binding result (cross-linking)	stoichiometry N (AUC)
B1	binds	
B2		2
B3		2
